Test results as given in PMC12154015, “A Novel Approach for the Activity Assessment of L-Asparaginase Formulations When Dealing with Complex Biological Samples” (International Journal of Molecular Sciences, 2025).

How the values were obtained:
Test in all cases: purified protein
purified protein [1] = substrate: Cc1cc(=O)oc2cc(NC(=O)C[C@H](N)C(=O)O)ccc12; format: biochemical, Rhodospirillum rubrum; settings: 37 °C, pH 7.4, table heading says in bovine serum, [S]0 = 1 mM
purified protein [2] = substrate: NC(=O)C[C@H](N)C(=O)O; format: biochemical, Rhodospirillum rubrum; settings: PBS 0.01 M, pH 7.4, 37 °C, [S]0 = 10 mM
purified protein [3] = substrate: NC(=O)C[C@H](N)C(=O)O; settings: PBS 0.01 M, pH 7.4, 37 °C, [S]0 = 10 mM
purified protein [4] = substrate: Cc1cc(=O)oc2cc(NC(=O)C[C@H](N)C(=O)O)ccc12; format: biochemical, Escherichia coli; settings: 37 °C, pH 7.4, table heading says in bovine serum, [S]0 = 1 mM

| Protein | Km (purified protein [1]) | Km (purified protein [2]) | Km (purified protein [3]) | Km (purified protein [4]) |
| --- | --- | --- | --- | --- |
| RrA; Rhodospirillum rubrum type I L-ASNase (Rhodospirillum rubrum ATCC 11170) (protein, recombinant, native (unconjugated); 172 residues, monomer 18 kDa; tetramer/dimer) MAVSPSPLRIFTAGGTIDKDYRLEENGLVVGDPFVAEVLKTARLAGAVSIVALSRKDSLDFTEADREAIGRAVGQAVEDHILLTHGTDTMVETARYLGGLPELAGKTVVLSGAMVPGRVGGSDAAFNIGFACAAALMLAPGVYIAMHGKVFDPAKTRKNRGLGRFEPIDDQE | 4000 ± 300 µM | 4000 ± 300 µM |  |  |
| EcA; E. coli L-ASNase (Veropharm) (Escherichia coli K-12) (protein, commercial native enzyme (Veropharm), unconjugated; monomer 37 kDa, 348 residues as printed (precursor length); tetramer) LPNITILATGGTIAGGGDSATKSNYTVGKVGVENLVNAVPQLKDIANVKGEQVVNIGSQDMNDNVWLTLAKKINTDCDKTDGFVITHGTDTMEETAYFLDLTVKCDKPVVMVGAMRPSTSMSADGPFNLYNAVVTAADKASANRGVLVVMNDTVLDGRDVTKTNTTDVATFKSVNYGPLGYIHNGKIDYQRTPARKHTSDTPFDVSKLNELPKVGIVYNYANASDLPAKALVDAGYDGIVSAGVGNGNLYKSVFDTLATAAKTGTAVVRSSRVPTGATTQDAEVDDAKYGFVASGTLNPQKARVLLQLALTQTKDPQQIQQIFNQY |  |  | 20 ± 3 µM | 20 ± 3 µM |
